This is an account of results in the Immune Epitope Database (IEDB).

pKd: −log10 of the molar value.

The target of assay [1] is HLA-B*46:01. The assay can be described thus: IEDB peptide-MHC binding, purified MHC/competitive/fluorescence; filed as Kd, often an IC50 or EC50 that approximates it; ≥ and ≤ were set here for values at or beyond the usual limits of such assays. To be noted: source organism: Escherichia coli 536.
The next assay has as its target HLA-C*12:03. The assay can be described thus: IEDB peptide-MHC binding, purified MHC/direct/fluorescence; filed as Kd, often an IC50 or EC50 that approximates it; ≥ and ≤ were set here for values at or beyond the usual limits of such assays.
For a further assay, the target named is HLA-C*03:03. The description is as above.
A further assay deals with HLA-C*04:01. Described as above.
For another assay, the target named is HLA-A*29:02. Briefly: IEDB peptide-MHC binding, purified MHC/competitive/fluorescence; filed as Kd, often an IC50 or EC50 that approximates it; ≥ and ≤ were set here for values at or beyond the usual limits of such assays. To be noted: source organism: Bacillus anthracis str. A0488.
A further assay deals with HLA-C*08:02. The assay can be described thus: IEDB peptide-MHC binding, purified MHC/direct/fluorescence; filed as Kd, often an IC50 or EC50 that approximates it; ≥ and ≤ were set here for values at or beyond the usual limits of such assays.
The next assay has as its target HLA-A*26:01. The assay is described as above.
The next assay deals with HLA-A*26:02. The description is as above. To be noted: source organism: Influenza A virus(A/swine/Shandong/fNY/2003(H9N2)).
A further assay concerns the target HLA-A*24:03. The description is as above. The note with it: source organism: Mycobacterium tuberculosis.
The target of a further assay is HLA-A*69:01. The assay is described as above.
The target of the next assay is HLA-C*05:01. The description is as above. To be noted: source organism: Variola virus.
Another assay has as its target HLA-A*02:06. Briefly: IEDB peptide-MHC binding, purified MHC/competitive/radioactivity; filed as Kd, often an IC50 or EC50 that approximates it; ≥ and ≤ were set here for values at or beyond the usual limits of such assays. To be noted: source organism: Vaccinia virus WR.
Another assay deals with HLA-A*02:02. The description is as above. To be noted: source organism: Vaccinia virus WR.
A further assay concerns the target HLA-A*02:03. Described as above. To be noted: source organism: Vaccinia virus WR.
For assay [2], the target named is HLA-A*11:01. The assay can be described thus: IEDB peptide-MHC binding, purified MHC/competitive/fluorescence; filed as Kd, often an IC50 or EC50 that approximates it; ≥ and ≤ were set here for values at or beyond the usual limits of such assays. The note with it: source organism: Escherichia coli APEC O1.
Assay [3] has as its target HLA-B*27:05. Described as above. To be noted: source organism: Escherichia coli APEC O1.
Another assay concerns the target HLA-A*31:01. The assay can be described thus: IEDB peptide-MHC binding, purified MHC/direct/fluorescence; filed as Kd, often an IC50 or EC50 that approximates it; ≥ and ≤ were set here for values at or beyond the usual limits of such assays.
Assay [4] has as its target HLA-B*48:01. The description is as above. The note with it: source organism: Bacillus anthracis.
For another assay, the target named is HLA-B*57:01. Described as above.
The target in the next assay is HLA-A*02:01. Described as above.
Assay [5] concerns the target HLA-B*15:17. The description is as above. To be noted: source organism: Bacillus anthracis.
The target of a further assay is HLA-B*51:01. The description is as above. The note with it: source organism: Bacillus anthracis.
The next assay has as its target HLA-A*03:01. The description is as above. To be noted: source organism: Bacillus anthracis.
For another assay, the target named is HLA-B*18:01. The assay is described as above. The note with it: source organism: Bacillus anthracis.
The next assay addresses HLA-B*40:01. The description is as above.
The target in a further assay is HLA-B*15:01. The assay is described as above. To be noted: source organism: Bacillus anthracis.
For another assay, the target named is HLA-A*01:01. The assay is described as above.
Another assay concerns the target HLA-B*58:01. The assay is described as above.
In assay [6] the target is HLA-B*46:01. Described as above. To be noted: source organism: Bacillus anthracis.
For assay [7], the target named is HLA-B*07:02. Briefly: IEDB peptide-MHC binding, purified MHC/competitive/fluorescence; filed as Kd, often an IC50 or EC50 that approximates it; ≥ and ≤ were set here for values at or beyond the usual limits of such assays. To be noted: source organism: Influenza A virus (A/swine/Italy/1509-6/97(H1N1)).
In another assay the target is HLA-C*06:02. Briefly: IEDB peptide-MHC binding, purified MHC/direct/fluorescence; filed as Kd, often an IC50 or EC50 that approximates it; ≥ and ≤ were set here for values at or beyond the usual limits of such assays. To be noted: source organism: Influenza A virus (A/swine/Italy/1509-6/97(H1N1)).
Another assay has as its target HLA-C*14:02. Described as above. The note with it: source organism: Influenza A virus (A/swine/Italy/1509-6/97(H1N1)).
Assay [8] has as its target HLA-B*48:01. Briefly: IEDB peptide-MHC binding, purified MHC/competitive/fluorescence; filed as Kd, often an IC50 or EC50 that approximates it; ≥ and ≤ were set here for values at or beyond the usual limits of such assays. To be noted: source organism: Francisella tularensis subsp. tularensis FSC198.
Assay [9] deals with HLA-B*15:17. Described as above. The note with it: source organism: Francisella tularensis subsp. tularensis FSC198.
For a further assay, the target named is HLA-B*39:01. The description is as above. The note with it: source organism: Francisella tularensis subsp. tularensis FSC198.
A further assay deals with HLA-B*15:09. Described as above. The note with it: source organism: Francisella tularensis subsp. tularensis FSC198.
The target in assay [10] is HLA-A*11:01. The assay can be described thus: IEDB peptide-MHC binding, purified MHC/direct/fluorescence; filed as Kd, often an IC50 or EC50 that approximates it; ≥ and ≤ were set here for values at or beyond the usual limits of such assays. The note with it: source organism: Francisella tularensis subsp. holarctica LVS.
Assay [11] has as its target HLA-B*07:02. The description is as above. The note with it: source organism: Francisella tularensis subsp. holarctica LVS.
Another assay deals with HLA-B*08:02. The assay is described as above. To be noted: source organism: Francisella tularensis subsp. tularensis FSC033.
A further assay concerns the target HLA-A*26:03. The assay is described as above. To be noted: source organism: Francisella tularensis subsp. tularensis FSC033.
The target in the next assay is HLA-B*44:02. The description is as above. The note with it: source organism: Francisella tularensis subsp. holarctica LVS.
Assay [12] addresses HLA-B*27:05. The assay is described as above. To be noted: source organism: Francisella tularensis subsp. holarctica LVS.
A further assay concerns the target HLA-B*08:03. Described as above. The note with it: source organism: Francisella tularensis subsp. tularensis FSC033.
Setting [13] is: source organism: Escherichia coli 536.
[14] abbreviates: source organism: Bacillus anthracis.
Setting [15] is: source organism: Francisella tularensis subsp. holarctica LVS.
The mark [16] stands for this setting: source organism: Yellow fever virus.

On to FMFDSDEAM, for which the pKd (in general, the Kd on a negative log10 scale, so that one unit is a factor of ten) is 7.53 with HLA-B*46:01 [1], 6.76 with HLA-C*12:03 (setting [13]), 8.30 in the assay with HLA-C*03:03 (setting [13]) and no more than 4.70 with HLA-C*04:01 (setting [13]).

As for YTVQGAGLM, the pKd is 7.59 in the assay with HLA-A*29:02 and no more than 4.70 in the assay with HLA-C*08:02 (source organism: Bacillus anthracis str. A0488).

As to TTVDHMAII, the pKd was 7.17 with HLA-A*26:01 (source organism: Influenza A virus (A/chicken/Beijing/nl/2002(H9N2))) and 7.92 in the assay with HLA-A*26:02.

YYIIETEHL: the figures for the pKd with HLA-A*24:03 and in the assay with HLA-C*04:01 (source organism: Mycobacterium tuberculosis H37Ra) were 9.70 and no more than 4.70, respectively.

For the sequence KVDDTFYYV, the pKd is 8.70 with HLA-A*69:01 (source organism: Camelpox virus CMS); 8.52 with HLA-C*05:01; no more than 4.70 with HLA-C*03:03 (source organism: Variola virus); no more than 4.46 with HLA-A*02:06; 5.73 with HLA-A*02:02; no more than 4.11 with HLA-A*02:03.

As to TPRIANRLL, the pKd in the assay with HLA-A*11:01 [2] is 5.86; in the assay with HLA-B*27:05 [3], no more than 4.70; with HLA-A*31:01 (setting [14]), no more than 4.70; with HLA-B*48:01 [4] it was no more than 4.70; with HLA-B*57:01 (setting [14]), no more than 4.70; with HLA-A*69:01 (setting [14]), no more than 4.70. Also, the negative-log Kd (pKd) with HLA-A*02:01 (setting [14]), with HLA-B*15:17 [5], with HLA-B*51:01, in the assay with HLA-A*03:01, with HLA-B*18:01 and with HLA-B*40:01 (setting [14]) was no more than 4.70 each time. In addition, the negative logarithm of the Kd (pKd) with HLA-B*15:01, with HLA-A*01:01 (setting [14]), in the assay with HLA-B*58:01 (setting [14]) and with HLA-B*46:01 [6] was no more than 4.70 throughout.

With ATYQRTRAL, the pKd with HLA-B*07:02 [7] was 6.71; with HLA-C*06:02, 7.12; with HLA-C*14:02, 6.61.

Take REIGDISYL: the negative logarithm of the Kd (pKd) is no more than 4.70 with HLA-B*48:01 [8]; no more than 4.70 with HLA-B*15:17 [9]; 6.51 with HLA-B*39:01; 5.70 with HLA-B*15:09; no more than 4.70 with HLA-A*31:01 (setting [15]); no more than 4.70 with HLA-B*57:01 (setting [15]). Also, the negative-log Kd (pKd) with HLA-A*69:01 (setting [15]), in the assay with HLA-A*26:01 (source organism: Francisella tularensis subsp. tularensis FSC033), with HLA-A*02:01 (setting [15]), with HLA-A*11:01 [10], with HLA-B*07:02 [11] and in the assay with HLA-B*08:02 was no more than 4.70 throughout. In addition, the pKd in the assay with HLA-A*26:03 is no more than 4.70; with HLA-B*44:02, no more than 4.70; with HLA-B*27:05 [12], no more than 4.70; with HLA-B*40:01 (setting [15]) it was no less than 9.00; with HLA-A*01:01 (setting [15]), no more than 4.70; with HLA-B*08:03, no more than 4.70. The sequence also showed a pKd with HLA-B*58:01 (setting [15]) of no more than 4.70.

Regarding YMPDVLEKL, the pKd with HLA-C*08:02 (setting [16]), with HLA-C*12:03 (setting [16]) and with HLA-C*03:03 (setting [16]) was no more than 4.70 in each case.
